For orientation: Kd means the constant that tells how readily two partners part at equilibrium.

Bounds are passed on as bounds.

B1: recombinant human insulin-like growth factor-binding protein 7 (natural protein)
chain: SSSDTCGPCEPASCPPLPPLGCLLGETRDACGCCPMCARGEGEPCGGGGAGRGYCAPGMECVKSRKRRKGKAGAAAGGPGVSGVCVCKSRYPVCGSDGTTYPSGCQLRAASQRAESRGEKAITQVSKGTCEQGPSIVTPPKDIWNVTGAQVYLSCEVIGIPTPVLIWNKVKRGHYGVQRTELLPGDRDNLAIQTRGGPEKHEVTGWVLVSPLSKEDAGEYECHASNSQGQASASAKITVVDALHEIPVKKGEGAEL
B2: recombinant human high-mobility group protein B2 (natural protein)
chain: MGKGDPNKPRGKMSSYAFFVQTCREEHKKKHPDSSVNFAEFSKKCSERWKTMSAKEKSKFEDMAKSDKARYDREMKNYVPPKGDKKGKKKDPNAPKRPPSAFFLFCSEHRPKIKSEHPGLSIGDTAKKLGEMWSEQSAKDKQPYEQKAAKLKEKYEKDIAAYRAKGKSEAGKKGPGRPTGSKKKNEPEDEEEEEEEEDEDEEEEDEDEE
B3: full-length human CEMIP (cell migration-inducing and hyaluronan-binding protein) (natural protein)
chain: TVAAGCPDQSPELQPWNPGHDQDHHVHIGQGKTLLLTSSATVYSIHISEGGKLVIKDHDEPIVLRTRHILIDNGGELHAGSALCPFQGNFTIILYGRADEGIQPDPYYGLKYIGVGKGGALELHGQKKLSWTFLNKTLHPGGMAEGGYFFERSWGHRGVIVHVIDPKSGTVIHSDRFDTYRSKKESERLVQYLNAVPDGRILSVAVNDEGSRNLDDMARKAMTKLGSKHFLHLGFRHPWSFLTVKGNPSSSVEDHIEYHGHRGSAAARVFKLFQTEHGEYFNVSLSSEWVQDVEWTEWFDHDKVSQTKGGEKISDLWKAHPGKICNRPIDIQATTMDGVNLSTEVVYKKGQDYRFACYDRGRACRSYRVRFLCGKPVRPKLTVTIDTNVNSTILNLEDNVQSWKPGDTLVIASTDYSMYQAEEFQVLPCRSCAPNQVKVAGKPMYLHIGEEIDGVDMRAEVGLLSRNIIVMGEMEDKCYPYRNHICNFFDFDTFGGHIKFALGFKAAHLEGTELKHMGQQLVGQYPIHFHLAGDVDERGGYDPPTYIRDLSIHHTFSRCVTVHGSNGLLIKDVVGYNSLGHCFFTEDGPEERNTFDHCLGLLVKSGTLLPSDRDSKMCKMITEDSYPGYIPKPRQDCNAVSTFWMANPNNNLINCAAAGSEETGFWFIFHHVPTGPSVGMYSPGYSEHIPLGKFYNNRAHSNYRAGMIIDNGVKTTEASAKDKRPFLSIISARYSPHQDADPLKPREPAIIRHFIAYKNQDHGAWLRGGDVWLDSCRFADNGIGLTLASGGTFPYDDGSKQEIKNSLFVGESGNVGTEMMDNRIWGPGGLDHSGRTLPIGQNFPIRGIQLYDGPINIQNCTFRKFVALEGRHTSALAFRLNNAWQSCPHNNVTGIAFEDVPITSRVFFGEPGPWFNQLDMDGDKTSVFHDVDGSVSEYPGSYLTKNDNWLVRHPDCINVPDWRGAICSGCYAQMYIQAYKTSNLRMKIIKNDFPSHPLYLEGALTRSTHYQQYQPVVTLQKGYTIHWDQTAPAELAIWLINFNKGDWIRVGLCYPRGTTFSILSDVHNRLLKQTSKTGVFVRTLQMDKVEQSYPGRSHYYWDEDSGLLFLKLKAQNEREKFAFCSMKGCERIKIKALIPKNAGVSDCTATAYPKFTERAVVDVPMPKKLFGSQLKTKDHFLEVKMESSKQHFFHLWNDFAYIEVDGKKYPSSEDGIQVVVIDGNQGRVVSHTSFRNSILQGIPWQLFNYVATIPDNSIVLMASKGRYVSRGPWTRVLEKLGADRGLKLKEQMAFVGFKGSFRPIWVTLDTEDHKAKIFQVVPIPVVKKKKL
B4: recombinant human hepatocyte growth factor activator (enzyme)
chain: QPGGNRTESPEPNATATPAIPTILVTSVTSETPATSAPEAEGPQSGGLPPPPRAVPSSSSPQAQALTEDGRPCRFPFRYGGRMLHACTSEGSAHRKWCATTHNYDRDRAWGYCVEATPPPGGPAALDPCASGPCLNGGSCSNTQDPQSYHCSCPRAFTGKDCGTEKCFDETRYEYLEGGDRWARVRQGHVEQCECFGGRTWCEGTRHTACLSSPCLNGGTCHLIVATGTTVCACPPGFAGRLCNIEPDERCFLGNGTGYRGVASTSASGLSCLAWNSDLLYQELHVDSVGAAALLGLGPHAYCRNPDNDERPWCYVVKDSALSWEYCRLEACESLTRVQLSPDLLATLPEPASPGRQACGRRHKKRTFLRPRIIGGSSSLPGSHPWLAAIYIGDSFCAGSLVHTCWVVSAAHCFSHSPPRDSVSVVLGQHFFNRTTDVTQTFGIEKYIPYTLYSVFNPSDHDLVLIRLKKKGDRCATRSQFVQPICLPEPGSTFPAGHKCQIAGWGHLDENVSGYSSSLREALVPLVADHKCSSPEVYGADISPNMLCAGYFDCKSDACQGDSGGPLACEKNGVAYLYGIISWGDGCGRLHKPGVYTRVANYVDWINDRIRPPRRLVAPS
B5: recombinant human slit homolog 2 protein (ligand)
chain: QCSCSGSTVDCHGLALRSVPRNIPRNTERLDLNGNNITRITKTDFAGLRHLRVLQLMENKISTIERGAFQDLKELERLRLNRNHLQLFPELLFLGTAKLYRLDLSENQIQAIPRKAFRGAVDIKNLQLDYNQISCIEDGAFRALRDLEVLTLNNNNITRLSVASFNHMPKLRTFRLHSNNLYCDCHLAWLSDWLRQRPRVGLYTQCMGPSHLRGHNVAEVQKREFVCSGHQSFMAPSCSVLHCPAACTCSNNIVDCRGKGLTEIPTNLPETITEIRLEQNTIKVIPPGAFSPYKKLRRIDLSNNQISELAPDAFQGLRSLNSLVLYGNKITELPKSLFEGLFSLQLLLLNANKINCLRVDAFQDLHNLNLLSLYDNKLQTIAKGTFSPLRAIQTMHLAQNPFICDCHLKWLADYLHTNPIETSGARCTSPRRLANKRIGQIKSKKFRCSAKEQYFIPGTEDYRSKLSGDCFADLACPEKCRCEGTTVDCSNQKLNKIPEHIPQYTAELRLNNNEFTVLEATGIFKKLPQLRKINFSNNKITDIEEGAFEGASGVNEILLTSNRLENVQHKMFKGLESLKTLMLRSNRITCVGNDSFIGLSSVRLLSLYDNQITTVAPGAFDTLHSLSTLNLLANPFNCNCYLAWLGEWLRKKRIVTGNPRCQKPYFLKEIPIQDVAIQDFTCDDGNDDNSCSPLSRCPTECTCLDTVVRCSNKGLKVLPKGIPRDVTELYLDGNQFTLVPKELSNYKHLTLIDLSNNRISTLSNQSFSNMTQLLTLILSYNRLRCIPPRTFDGLKSLRLLSLHGNDISVVPEGAFNDLSALSHLAIGANPLYCDCNMQWLSDWVKSEYKEPGIARCAGPGEMADKLLLTTPSKKFTCQGPVDVNILAKCNPCLSNPCKNDGTCNSDPVDFYRCTCPYGFKGQDCDVPIHACISNPCKHGGTCHLKEGEEDGFWCICADGFEGENCEVNVDDCEDNDCENNSTCVDGINNYTCLCPPEYTGELCEEKLDFCAQDLNPCQHDSKCILTPKGFKCDCTPGYVGEHCDIDFDDCQDNKCKNGAHCTDAVNGYTCICPEGYSGLFCEFSPPMVLPRTSPCDNFDCQNGAQCIVRINEPICQCLPGYQGEKCEKLVSVNFINKESYLQIPSAKVRPQTNITLQIATDEDSGILLYKGDKDHIAVELYRGRVRASYDTGSHPASAIYSVETINDGNFHIVELLALDQSLSLSVDGGNPKIITNLSKQSTLNFDSPLYVGGMPGKSNVASLRQAPGQNGTSFHGCIRNLYINSELQDFQKVPMQTGILPGCEPCHKKVCAHGTCQPSSQAGFTCECQEGWMGPLCDQRTNDPCLGNKCVHGTCLPINAFSYSCKCLEGHGGVLCDEEEDLFNPCQAIKCKHGKCRLSGLGQPYCECSSGYTGDSCDREISCRGERIRDYYQKQQGYAACQTTKKVSRLECRGGCAGGQCCGPLRSKRRKYSFECTDGSSFVDEVEKVVKCGCTRCVS
B6: recombinant human secreted protein acidic and rich in cysteine (natural protein)
chain: APQQEALPDETEVVEETVAEVTEVSVGANPVQVEVGEFDDGAEETEEEVVAENPCQNHHCKHGKVCELDENNTPMCVCQDPTSCPAPIGEFEKVCSNDNKTFDSSCHFFATKCTLEGTKKGHKLHLDYIGPCKYIPPCLDSELTEFPLRMRDWLKNVLVTLYERDEDNNLLTEKQKLRVKKIHENEKRLEAGDHPVELLARDFEKNYNMYIFPVHWQFGQLDQHPIDGYLSHTELAPLRAPLIPMEHCTTRFFETCDLDNDKYIALDEWAGCFGIKQKDIDKDLVI

The assay deals with soluble form of full-length LRP1 (low-density lipoprotein receptor-related protein 1) (human). Kind of assay: ELISA. For orientation: In an ELISA, binding on a coated surface is turned into a signal by an enzyme label.
In the case of “recombinant human high-mobility group protein B1 (from UniProt P09429 1-215) (natural protein)”, the Kd was determined as 6.4 nM.
The result for “recombinant human leukemia inhibitory factor (from UniProt P15018 23-202) (ligand)” reads above 200 nM; that for “recombinant human tumour necrosis factor-inducible gene 6 protein (from UniProt P98066 18-277) (natural protein)”, 11 nM.
“recombinant human ADAMTS1 (from UniProt Q9UHI8 50-967) (enzyme)” gave a Kd of 20.2 nM.
The result for B1 reads 11 nM.
The result for B2 reads 3.9 nM; that for B3, 2.6 nM; that for B4, above 500 nM.
B5 showed a Kd of 2 nM.
In the case of B6 it was 41 nM.

(Values after publication doi:10.1101/2022.03.02.482546.)
